In the experiment the test system is hWAT-SVF and hBAT-SVF progenitors. The experiment can be described thus: OCR (Seahorse) in adipocytes from BMP7 pre-treated progenitors. Format: cell-based, human. Particulars: hWAT-SVF from both subjects and hBAT-SVF from Subject 2; 3.3 nM BMP7 pre-exposure 6 days. The protocol: FIG. 6B depicts OCR assayed using the Seahorse extracellular flux analyzer in differentiated hWA and hBA from Sub1 and Sub2 that were pre-treated with 3.3 nM BMP7 or vehicle (Veh) for 6 days and then differentiation into mature adipocytes. Equal numbers of progenitors were plated and differentiated. Quantification of OCR in the absence (Basal Res.) and presence of oligomycin (Proton Leak) or FCCP (Max. Res.) are shown. Data are presented as mean±s.e.m. (n=10; two-tailed Student's t-test; *P<0.05, **P<0.01, ***P<0.001). A representative experiment from a total of two independent studies is shown. Data are represented in the same order as appeared in the legend. FIGS. 6C and 6D depict measurement of glucose uptake using ^3H 2-Deoxy-Glucose in differentiated hWA and hBA from Sub1 and Sub2 that were pre-treated with 3.3 nM BMP7 or vehicle (Veh) for 6 days and then differentiation into mature adipocytes. […]
To assess mitochondrial respiration, a Seahorse Extracellular Flux Analyzer (Seahorse Bioscience Inc., North Billerica, Mass.) was used to quantify oxygen consumption rates (OCR) of differentiated human white and brown adipocytes. […] After adipogenic induction for 12 days, OCR was analyzed. […] All data were average of four-time points with 10 wells per time point by quantified in bar plots, and error bars are standard error of the mean (s.e.m.). […]

B1: BMP7: Recombinant human BMP7, an inducer of brown adipogenesis (protein, UniProt P18075 293-431, looked up)
Bone morphogenetic protein 7: STGSKQRSQNRSKTPKNQEALRMANVAENSSSDQRQACKKHELYVSFRDLGWQDWIIAPEGYAAYYCEGECAFPLNSYMNATNHAIVQTLVHFINPETVPKPCCAPTQLNAISVLYFDDSSNVILKKYRNMVVRACGCH
As for B1, the “mitochondrial activity in mature adipocytes” value is “enhanced”.

For the origin of these results see US11078259B2, “Methods and compositions for promoting thermogenic potential” (Joslin Diabetes Center, Inc., priority 2015, dated 2021).
